The source of these data is paper PMC11662665, “Phosphorylation-mediated disassembly of C-terminal binding protein 2 tetramer impedes epigenetic silencing of pluripotency in mouse embryonic stem cells” (Nucleic Acids Research, 2024).

Data set [1] deals with the molecule itself. Put plainly: pull-down; 1 ug GST-tagged and 1 ug His6-tagged recombinant Ctbp2, pulled down with GSH beads; 25 mM Tris-Cl pH 7.5, 0.1% NP-40, 150 mM NaCl, NADH, BSA, 10% glycerol, 4 C; for the phosphorylated form after in vitro phosphorylation with HA-Chk2.
In a further data set the target is T1, GST-CTBP2 (UniProt P56546 1-445).
T1 construct: also called GST-tagged Ctbp2; source: E. coli BL21 DE3 pLysS, purified (glutathione Sepharose 4B)
T1 sequence (P56546 whole entry): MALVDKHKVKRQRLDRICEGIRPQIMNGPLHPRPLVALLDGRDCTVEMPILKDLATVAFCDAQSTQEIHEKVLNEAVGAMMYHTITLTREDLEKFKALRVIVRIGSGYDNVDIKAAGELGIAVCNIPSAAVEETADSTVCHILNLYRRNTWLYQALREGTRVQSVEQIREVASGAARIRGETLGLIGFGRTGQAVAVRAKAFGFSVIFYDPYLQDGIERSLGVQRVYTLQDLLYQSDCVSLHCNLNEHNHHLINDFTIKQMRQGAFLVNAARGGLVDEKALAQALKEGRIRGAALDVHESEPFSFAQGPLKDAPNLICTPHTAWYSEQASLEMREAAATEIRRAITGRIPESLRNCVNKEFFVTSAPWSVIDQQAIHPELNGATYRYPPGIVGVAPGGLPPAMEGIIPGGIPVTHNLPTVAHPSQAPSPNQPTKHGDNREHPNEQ
The data set is described as follows: pull-down; recombinant truncated FLAG-Suz12 and GST-CTBP2 incubated in vitro; pull down with glutathione Sepharose. Conditions: both partners purified.

B1: GST- or His6-tagged recombinant CTBP2, wild type (the two copies of the in vitro self-binding assay) (natural protein)
chain: not shown
notes: Two differently tagged copies of one protein; each copy carries one tag; The same constructs stand singly as m31 (His6) and m33 (GST); also called recombinant wild-type Ctbp2; source: E. coli BL21 DE3 pLysS, purified (glutathione Sepharose 4B or Ni-NTA agarose)
In the case of B1, the binding result in data set [1] is on record as “binds”.

B2: FLAG-Suz12 1–138 (recombinant truncated Suz12, N-terminal region) (domain or fragment, human, UniProt Q15022 1-138, looked up)
chain: MAPQKHGGGGGGGSGPSAGSGGGGFGGSAAVAAATASGGKSGGGSCGGGGSYSASSSSSAAAAAGAAVLPVKKPKMEHVQADHELFLQAFEKPTQIYRFLRTRNLIAPIFLHRTLTYMSHRNSRTNIKRKTFKVDDML
notes: the methods call the cloned PRC2 components human
For the molecule B2, the binding result in the data set with GST-CTBP2 was “binds”.
